The values that follow come from patent US20250340626A1 (INTERVET, published 2025).

As a reminder, the EC50 is the concentration at which the effect is half-maximal. Low values mean a more potent agent, high ones a less potent agent.

T1: canine NGF receptor TrkA ECD-canine Fc fusion protein (canine)
T1 construct: also called cTrkA-ECD-IgG-B Fc fusion protein; canine TrkA-IgGBFc fusion protein
T1 chain: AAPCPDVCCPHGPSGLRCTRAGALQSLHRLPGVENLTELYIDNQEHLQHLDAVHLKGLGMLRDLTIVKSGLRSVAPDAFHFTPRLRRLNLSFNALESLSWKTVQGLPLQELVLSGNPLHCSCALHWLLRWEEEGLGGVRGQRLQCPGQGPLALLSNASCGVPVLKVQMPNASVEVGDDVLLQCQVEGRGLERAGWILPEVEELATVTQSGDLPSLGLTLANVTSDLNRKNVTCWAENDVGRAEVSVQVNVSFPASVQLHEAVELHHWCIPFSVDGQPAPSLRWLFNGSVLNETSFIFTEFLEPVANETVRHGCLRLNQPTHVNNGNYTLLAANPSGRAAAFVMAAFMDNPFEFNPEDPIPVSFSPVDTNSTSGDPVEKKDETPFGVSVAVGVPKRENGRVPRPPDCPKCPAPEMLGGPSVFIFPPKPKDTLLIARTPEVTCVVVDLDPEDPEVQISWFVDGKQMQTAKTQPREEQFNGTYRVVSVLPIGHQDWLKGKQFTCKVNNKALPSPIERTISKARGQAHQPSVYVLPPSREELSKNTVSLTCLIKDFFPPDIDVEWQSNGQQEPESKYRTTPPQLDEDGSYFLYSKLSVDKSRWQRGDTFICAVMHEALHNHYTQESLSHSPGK

B1: human-canine chimeric Fasinumab (antibody, V domains shown)
VH: QVQLVQSGAEVKKPGASVKVSCKVSGFTLTELSIHWVRQAPGKGLEWMGGFDPEDGETIYAQKFQGRVTMTEDTSTDTAYMELTSLRSEDTAVYYCSTIGVVTNFDNWGQGTLVTVSS
VL: DIQMTQSPSSLSASAGDRVTITCRASQAIRNDLGWYQQKPGKAPKRLIYAAFNLQSGVPSRFSGSGSGTEFTLTISSLQPEDLASYYCQQYNRYPWTFGQGTKVEIKR
notes: Human VH/VL of fasinumab fused to canine IgG-B constant regions and canine kappa constant region; also called Fas Chimeric; Fas Chim
B2: canine NGF (ligand)
chain: SSSHPVFHRGEFSVCDSVSVWVGDKTTATDIKGKEVMVLGEVNINNSVFKQYFFETKCRDPTPVDSGCRGIDSKHWNSYCTTTHTFVKALTMDGKQAAWRFIRIDTACVCVLSRKAGRRA
notes: also called canine Nerve Growth Factor; cNGF
B3: human-canine chimeric Fulranumab (antibody, V domains shown)
VH: EVQLVESGGGLVQPGGSLRLSCAASGFTLRSYSMNWVRQAPGKGLEWVSYISRSSHTIFYADSVKGRFTISRDNAKNSLYLQMDSLRDEDTAMYYCARVYSSGWHVSDYFDYWGQGILVTVSS
VL: AIQLTQSPSSLSASVGDRVTITCRASQGISSALAWYQQKPGKAPKLLIYDASSLESGVPSRFSGSGSGTDFTLTISSLQPEDFATYYCQQFNSYPLTFGGGTKVEIKR
notes: Human VH/VL of fulranumab fused to canine IgG-B constant regions and canine kappa constant region; expressed in HEK293, Protein A purified; also called Ful Chimeric; Ful Chim

In the assay “canine NGF” the target is B2. In words: ELISA, canine NGF coated, anti-dog IgG Fc-HRP detection. On the procedure: The binding of chimeric and caninized antibodies to canine NGF was determined by ELISA as follows: [0132] 1. Coat 100 ng/well canine NGF in an immunoplate and incubate the plate at 4° C. overnight. [0133] 2. Wash the plate 3 times by PBS with 0.05% Tween 20 (PBST). [0134] 3. Block the plate by 0.5% BSA in PBS for 45-60 min at room temperature. [0135] 4. Wash the plate 3 times by PBST. [0136] 5. Make 3-fold dilution the antibodies in each column or row of dilution plate. [0137] 6. Transfer the diluted antibodies into each column or row of the immunoplate, and incubate the plate for 45-60 min at room temperature. [0138] 7. Wash the plate 3 times by PBST. [0139] 8. Add 1:2000 diluted horseradish peroxidase labeled anti-dog IgG Fc into each well of the plate and incubate the plate for 45-60 min at room temperature. [0140] 9. Wash the plate 3 times by PBST. [0141] 10. Add TMB Substrate into each well of the plate and incubate the plate for 10 to 15 min at room temperature for color development. [0142] 11. Add 100 μL of 1.5 M phosphoric acid into each well to stop the reaction. [0143] 12. Read the plate at 450 nm with 540 nm reference wavelength.
A general note: An ELISA detects its analyte on a solid surface through an enzyme-linked reagent.

For assay [1], the target named is T1, canine NGF receptor TrkA ECD-canine Fc …. The experiment in a line: ELISA, canine NGF on canine TrkA receptor.
For the next assay, the target named is human TrkA on TF-1 cells (human, UniProt P04629 33-796). In words: cell-based or functional assay.
human TrkA on TF-1 cells, sequence (P04629 33-796): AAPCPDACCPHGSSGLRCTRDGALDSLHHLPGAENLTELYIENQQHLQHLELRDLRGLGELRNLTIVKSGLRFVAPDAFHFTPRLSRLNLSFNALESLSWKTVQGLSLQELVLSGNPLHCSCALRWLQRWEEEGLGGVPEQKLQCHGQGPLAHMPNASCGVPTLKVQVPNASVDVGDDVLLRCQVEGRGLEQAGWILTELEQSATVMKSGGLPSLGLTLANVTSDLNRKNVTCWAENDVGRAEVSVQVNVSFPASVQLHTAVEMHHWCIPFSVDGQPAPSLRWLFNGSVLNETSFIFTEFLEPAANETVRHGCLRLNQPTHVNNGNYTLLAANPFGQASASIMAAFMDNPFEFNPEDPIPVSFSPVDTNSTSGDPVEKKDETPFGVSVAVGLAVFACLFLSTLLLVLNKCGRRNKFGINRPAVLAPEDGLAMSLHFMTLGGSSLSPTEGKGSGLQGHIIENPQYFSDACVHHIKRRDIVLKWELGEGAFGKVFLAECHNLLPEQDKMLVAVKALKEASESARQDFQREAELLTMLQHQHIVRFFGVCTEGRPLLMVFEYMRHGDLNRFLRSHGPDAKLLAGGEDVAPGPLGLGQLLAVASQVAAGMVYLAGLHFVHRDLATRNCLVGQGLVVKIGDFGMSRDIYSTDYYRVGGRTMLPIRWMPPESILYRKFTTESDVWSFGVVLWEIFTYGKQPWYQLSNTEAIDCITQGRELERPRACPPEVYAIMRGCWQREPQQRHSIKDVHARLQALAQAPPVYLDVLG

B1 registered a 50% effective concentration (EC50) with canine NGF of 122 nM.

In assay [1], B2 yielded a concentration for a half-maximal effect (EC50) of 54 nM. Besides, in the assay with human TrkA on TF-1 cells, the “TF-1 cell proliferation (CellTiter-Glo luminescence) EC50” value worked out at 28 nM.

With B3, the EC50 in the assay with canine NGF stood at 0.022 nM.
